The target in test [1] is T1, human VEGF165 (human, UniProt P15692-4 27-191).
T1 construct: Bought recombinant protein; Coated on plates (ELISA), amine-coupled to a CM5 chip (SPR) or added to HUVE cells at 10 ng/mL; also called hVEGF165; vascular endothelial growth factor
Put plainly: surface plasmon resonance (BIAcore), hVEGF165 coupled to a CM5 chip, BBI-VEGF injected. A general note: Surface plasmon resonance follows binding to a sensor surface in real time, without labels.

The target in test [2] is T1, human VEGF165. Put plainly: SPR (BIAcore 3000), VEGF165 coupled to CM5 chip, peptide injected; two state reaction model with conformation change.
The target of test [3] is T1, human VEGF165. The test can be described thus: plate binding assay: hVEGF165-coated wells, bound beta-lactamase activity measured with nitrocefin (mOD/min).
In test [4] the target is BSA (UniProt P02769 25-607). The test can be described thus: phage ELISA, detected with anti-M13-HRP and ABTS, A405 after 30 min, n=3.
BSA, sequence (P02769 25-607 limits assumed): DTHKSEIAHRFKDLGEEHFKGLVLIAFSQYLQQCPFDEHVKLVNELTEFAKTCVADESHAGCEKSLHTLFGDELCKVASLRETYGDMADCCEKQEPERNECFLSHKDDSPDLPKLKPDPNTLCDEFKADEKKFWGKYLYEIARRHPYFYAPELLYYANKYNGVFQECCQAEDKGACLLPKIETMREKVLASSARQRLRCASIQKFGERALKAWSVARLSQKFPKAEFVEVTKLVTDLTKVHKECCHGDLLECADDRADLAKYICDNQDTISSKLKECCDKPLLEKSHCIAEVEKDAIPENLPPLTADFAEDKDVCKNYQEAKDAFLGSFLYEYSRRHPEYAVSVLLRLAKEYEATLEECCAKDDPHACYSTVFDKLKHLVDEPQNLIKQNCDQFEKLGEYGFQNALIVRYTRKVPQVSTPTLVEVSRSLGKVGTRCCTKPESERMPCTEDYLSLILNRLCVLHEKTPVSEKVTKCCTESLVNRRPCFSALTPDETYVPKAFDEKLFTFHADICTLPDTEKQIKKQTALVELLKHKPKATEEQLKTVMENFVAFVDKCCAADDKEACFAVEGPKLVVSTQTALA
Test [5] has as its target T1, human VEGF165. The test can be described thus: SPR (BIAcore 3000), 6000 RU VEGF on CM5 chip, TNF reference lane, peptide injected; two state reaction model with conformation change.

The record followed here is patent US20050203026A1 (DANISCO US, published 2005).

No end group written: not given here.

Usually Kd stands for the free concentration of one partner at which half of the binding sites on the other are occupied at equilibrium, for simple one-to-one binding. One may read the koff as the rate constant with which the complex falls apart. A higher koff goes with fast dissociation. In general, kon refers to the second-order rate constant of association. A higher kon goes with fast association.

T1 sequence (P15692 other isoform, or with tags, fused parts or gaps limits assumed): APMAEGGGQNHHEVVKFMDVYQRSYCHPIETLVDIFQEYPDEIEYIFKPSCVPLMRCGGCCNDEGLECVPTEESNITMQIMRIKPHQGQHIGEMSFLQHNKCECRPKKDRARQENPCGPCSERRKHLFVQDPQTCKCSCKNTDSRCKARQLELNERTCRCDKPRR

B1: BBI-VEGF1 (designed binder)
chain: DDESSKPCCDQCACYNLYGWTCRCSDMRLNSCHSACKSCICALSYPAQCFCVDITDFCYEPCKPSEDDKEN
notes: also called anti-VEGF BBI
B1: the binding result in test [1] is listed as “binds”.
With ACYNLYGWTCGGG (cysteine pairing not given here; also: biotinylated, site not given here, Synthetic peptide (FMOC, SynPep)) [biotinylated peptide CK37281], in test [2], the dissociation constant (Kd) stood at 1.92 µM, the koff was 0.0122 s⁻¹ and the kon came to 2840 M⁻¹ s⁻¹.

B2: BLA (enzyme)
chain: TPVSEKQLAEVVANTITPLMKAQSVPGMAVAVIYQGKPHYYTFGKADIAANKPVTPQTLFELGSISKTFTGVLGGDAIARGEISLDDAVTRYWPQLTGKQWQGIRMLDLATYTAGGLPLQVPDEVTDNASLLRFYQNWQPQWKPGTTRLYANASIGLFGALAVKPSGMPYEQAMTTRVLKPLKLDHTWINVPKAEEAHYAWGYRDGKAVRVSPGMLDAQAYGVKTNVQDMANWVMANMAPENVADASLKQGIALAQSRYWRIGSMYQGLGWEMLNWPVEANTVVEGSDSKVALAPLPVAEVNPPAPPVKASWVHKTGSTGGFGSYVAFIPEKQIGIVMLANTSYPNPARVEAAYHILEALQHHHHHH
notes: also called pCB04; pCB04 (WT)
For B2, in test [3], the binding result was “no binding (tested: about 40 µM)”.
ACTLWPSYWCGGG [SEQ ID NO 7]: the binding result in test [4] is recorded as “no binding”.
Still for that read-out and setting: next, ACSLWPAFWCGGG [SEQ ID NO 4]: “no binding”.
Same read-out and setting: next, ACYNLYGWTCGGG [SEQ ID NO 1]: “no binding”; ACTLWPTFWCGGG [SEQ ID NO 2]: “no binding”.

B3: CK37283 (peptide)
peptide: ACNLWPHFWCGGG
modifications: Probably cyclised by a Cys2-Cys10 disulfide, since it comes from the C7C constrained library. The patent does not say this for the synthetic peptide.
notes: Synthetic peptide from the phage panning
For B3, in test [5], binding was characterised by a dissociation constant (Kd) of 4.9 µM, the koff is 0.318 s⁻¹ and the kon stood at 12400 M⁻¹ s⁻¹.
Consider ACNLWPHFWCGGG [SEQ ID NO 3], for which the binding result in test [4] is “no binding”.
